The experiment concerns the target 53BP1 fragment (a.a. 1221-1718) fused to an adenylate cyclase fragment (two-hybrid) (UniProt Q12888). In words: cell-based or functional assay.
Take “i53 + S20W two-hybrid fusion (designed binder)”: the Experiment 1 Average Enrichment was -0.36 log2, the Experiment 1 Rep 1 Enrichment is -0.97 log2, the Experiment 1 Rep 2 Enrichment amounted to 0.25 log2 and the Experiment 2 Average Enrichment came to 0.17 log2. Moreover, the Experiment 2 Rep 1 Enrichment amounted to 0.1 log2 and the Experiment 2 Rep 2 Enrichment is 0.24 log2.
For “i53 + S49A two-hybrid fusion (designed binder)”, the Experiment 1 Average Enrichment was 0.5 log2, the Experiment 1 Rep 1 Enrichment is 0.62 log2, the Experiment 1 Rep 2 Enrichment amounted to 0.39 log2 and the Experiment 2 Average Enrichment worked out at 0.41 log2. In addition, the Experiment 2 Rep 1 Enrichment is 0.76 log2 and the Experiment 2 Rep 2 Enrichment was 0.06 log2.
In the case of “i53 + S49C two-hybrid fusion (designed binder)”, the Experiment 1 Average Enrichment amounted to 0.6 log2, the Experiment 1 Rep 1 Enrichment turned out to be 0.95 log2, the Experiment 1 Rep 2 Enrichment was 0.24 log2 and the Experiment 2 Average Enrichment was -0.18 log2. This substance yielded an Experiment 2 Rep 1 Enrichment of -0.04 log2 and an Experiment 2 Rep 2 Enrichment of -0.31 log2.
Substance “i53 + S49D two-hybrid fusion (designed binder)” had an Experiment 1 Average Enrichment of 0.41 log2, an Experiment 1 Rep 1 Enrichment of 0.11 log2, an Experiment 1 Rep 2 Enrichment of 0.71 log2 and an Experiment 2 Average Enrichment of 0.44 log2. Besides, the Experiment 2 Rep 1 Enrichment amounted to 0.39 log2 and the Experiment 2 Rep 2 Enrichment was 0.49 log2.
In turn, “i53 + S49E two-hybrid fusion (designed binder)” displayed an Experiment 1 Average Enrichment of 0.44 log2, an Experiment 1 Rep 1 Enrichment of 0.84 log2, an Experiment 1 Rep 2 Enrichment of 0.04 log2 and an Experiment 2 Average Enrichment of 0.81 log2. Besides, the Experiment 2 Rep 1 Enrichment is 0.96 log2 and the Experiment 2 Rep 2 Enrichment was 0.67 log2.
The substance “i53 + S49G two-hybrid fusion (designed binder)” displayed an Experiment 1 Average Enrichment of 0.02 log2, an Experiment 1 Rep 1 Enrichment of 0.27 log2, an Experiment 1 Rep 2 Enrichment of -0.23 log2 and an Experiment 2 Average Enrichment of -0.31 log2. Also, the Experiment 2 Rep 1 Enrichment is -0.57 log2 and the Experiment 2 Rep 2 Enrichment is -0.05 log2.
“i53 + S49I two-hybrid fusion (designed binder)”: the Experiment 1 Average Enrichment came out at 0.3 log2, the Experiment 1 Rep 1 Enrichment is 0.04 log2, the Experiment 1 Rep 2 Enrichment was found to be 0.56 log2 and the Experiment 2 Average Enrichment worked out at 0.17 log2. Further, the Experiment 2 Rep 1 Enrichment was determined as 0.6 log2 and the Experiment 2 Rep 2 Enrichment was -0.26 log2.
“i53 + S49L two-hybrid fusion (designed binder)” displayed an Experiment 1 Average Enrichment of 1 log2, an Experiment 1 Rep 1 Enrichment of 0.85 log2, an Experiment 1 Rep 2 Enrichment of 1.15 log2 and an Experiment 2 Average Enrichment of 0.88 log2. The Experiment 2 Rep 1 Enrichment stood at 0.97 log2, the Experiment 2 Rep 2 Enrichment is 0.8 log2, the Percent GFP Positive Rep 1 worked out at 18.8% and the Percent GFP Positive Rep 2 is 13.6%. Also, the Percent GFP Positive Rep 3 turned out to be 17.7%.
Turning to “i53 + S49M two-hybrid fusion (designed binder)”, the Experiment 1 Average Enrichment turned out to be 0.84 log2, the Experiment 1 Rep 1 Enrichment was 1 log2, the Experiment 1 Rep 2 Enrichment came to 0.69 log2 and the Experiment 2 Average Enrichment is 0.77 log2. This substance displayed an Experiment 2 Rep 1 Enrichment of 0.57 log2 and an Experiment 2 Rep 2 Enrichment of 0.98 log2.
“i53 + S49N two-hybrid fusion (designed binder)” registered an Experiment 1 Average Enrichment of 0.04 log2, an Experiment 1 Rep 1 Enrichment of 0.31 log2, an Experiment 1 Rep 2 Enrichment of -0.23 log2 and an Experiment 2 Average Enrichment of -0.35 log2. In addition, the Experiment 2 Rep 1 Enrichment is -0.59 log2 and the Experiment 2 Rep 2 Enrichment was -0.11 log2.
Substance “i53 + S49P two-hybrid fusion (designed binder)” displayed an Experiment 1 Average Enrichment of 0.78 log2, an Experiment 1 Rep 1 Enrichment of 0.65 log2, an Experiment 1 Rep 2 Enrichment of 0.91 log2 and an Experiment 2 Average Enrichment of 0.58 log2. In addition, the Experiment 2 Rep 1 Enrichment stood at 0.71 log2 and the Experiment 2 Rep 2 Enrichment came to 0.44 log2.
“i53 + S49V two-hybrid fusion (designed binder)”: the Experiment 1 Average Enrichment amounted to 0.52 log2, the Experiment 1 Rep 1 Enrichment was 0.8 log2, the Experiment 1 Rep 2 Enrichment came to 0.23 log2 and the Experiment 2 Average Enrichment was 0.49 log2. For the same substance, the Experiment 2 Rep 1 Enrichment amounted to 0.52 log2 and the Experiment 2 Rep 2 Enrichment came out at 0.45 log2.
As for “i53 + S57A two-hybrid fusion (designed binder)”, the Experiment 1 Average Enrichment turned out to be 0.37 log2, the Experiment 1 Rep 1 Enrichment is 0.29 log2, the Experiment 1 Rep 2 Enrichment is 0.46 log2 and the Experiment 2 Average Enrichment came to 0.03 log2. Further, the Experiment 2 Rep 1 Enrichment was -0.03 log2 and the Experiment 2 Rep 2 Enrichment is 0.08 log2.
“i53 + S57D two-hybrid fusion (designed binder)” yielded an Experiment 1 Average Enrichment of 1.22 log2, an Experiment 1 Rep 1 Enrichment of 1.05 log2, an Experiment 1 Rep 2 Enrichment of 1.39 log2 and an Experiment 2 Average Enrichment of 0.86 log2. This substance showed an Experiment 2 Rep 1 Enrichment of 0.89 log2 and an Experiment 2 Rep 2 Enrichment of 0.83 log2.
In turn, “i53 + S57E two-hybrid fusion (designed binder)” registered an Experiment 1 Average Enrichment of 0.45 log2, an Experiment 1 Rep 1 Enrichment of 0.28 log2, an Experiment 1 Rep 2 Enrichment of 0.62 log2 and an Experiment 2 Average Enrichment of 0.35 log2. The substance also came in with an Experiment 2 Rep 1 Enrichment of 0.42 log2 and an Experiment 2 Rep 2 Enrichment of 0.28 log2.
As for “i53 + S57H two-hybrid fusion (designed binder)”, the Experiment 1 Average Enrichment worked out at 0.72 log2, the Experiment 1 Rep 1 Enrichment was 0.54 log2, the Experiment 1 Rep 2 Enrichment came out at 0.9 log2 and the Experiment 2 Average Enrichment was found to be 0.17 log2. For the same substance, the Experiment 2 Rep 1 Enrichment is -0.04 log2 and the Experiment 2 Rep 2 Enrichment was determined as 0.39 log2.
Take “i53 + S57K two-hybrid fusion (designed binder)”: the Experiment 1 Average Enrichment was -0.4 log2, the Experiment 1 Rep 1 Enrichment is -0.22 log2, the Experiment 1 Rep 2 Enrichment is -0.58 log2 and the Experiment 2 Average Enrichment amounted to 0.15 log2. Also, the Experiment 2 Rep 1 Enrichment is -0.07 log2 and the Experiment 2 Rep 2 Enrichment was determined as 0.36 log2.
Substance “i53 + S57M two-hybrid fusion (designed binder)” had an Experiment 1 Average Enrichment of 0.01 log2, an Experiment 1 Rep 1 Enrichment of -0.11 log2, an Experiment 1 Rep 2 Enrichment of 0.12 log2 and an Experiment 2 Average Enrichment of -0.04 log2. Moreover, the Experiment 2 Rep 1 Enrichment was -0.17 log2 and the Experiment 2 Rep 2 Enrichment is 0.09 log2.
“i53 + S57N two-hybrid fusion (designed binder)” showed an Experiment 1 Average Enrichment of 1.34 log2, an Experiment 1 Rep 1 Enrichment of 1.72 log2, an Experiment 1 Rep 2 Enrichment of 0.96 log2 and an Experiment 2 Average Enrichment of 0.69 log2. The same substance returned an Experiment 2 Rep 1 Enrichment of 0.82 log2 and an Experiment 2 Rep 2 Enrichment of 0.56 log2.
As for “i53 + S57Q two-hybrid fusion (designed binder)”, the Experiment 1 Average Enrichment was determined as 0.07 log2, the Experiment 1 Rep 1 Enrichment turned out to be 0.07 log2, the Experiment 1 Rep 2 Enrichment was 0.07 log2 and the Experiment 2 Average Enrichment amounted to 0.14 log2. In addition, the Experiment 2 Rep 1 Enrichment came to 0.27 log2 and the Experiment 2 Rep 2 Enrichment was determined as 0.01 log2.
For “i53 + S57R two-hybrid fusion (designed binder)”, the Experiment 1 Average Enrichment was found to be 0.02 log2, the Experiment 1 Rep 1 Enrichment was determined as 0.05 log2, the Experiment 1 Rep 2 Enrichment was -0.01 log2 and the Experiment 2 Average Enrichment was -0.18 log2. In addition, the Experiment 2 Rep 1 Enrichment was -0.32 log2 and the Experiment 2 Rep 2 Enrichment was -0.03 log2.
“i53 + S65A two-hybrid fusion (designed binder)” yielded an Experiment 1 Average Enrichment of 1.15 log2, an Experiment 1 Rep 1 Enrichment of 1.29 log2, an Experiment 1 Rep 2 Enrichment of 1.01 log2 and an Experiment 2 Average Enrichment of 0.95 log2. The same substance showed an Experiment 2 Rep 1 Enrichment of 1.17 log2 and an Experiment 2 Rep 2 Enrichment of 0.73 log2.
“i53 + S65D two-hybrid fusion (designed binder)” came in with an Experiment 1 Average Enrichment of 0.36 log2, an Experiment 1 Rep 1 Enrichment of 0.02 log2, an Experiment 1 Rep 2 Enrichment of 0.7 log2 and an Experiment 2 Average Enrichment of 0.85 log2. In addition, the Experiment 2 Rep 1 Enrichment amounted to 0.61 log2 and the Experiment 2 Rep 2 Enrichment was determined as 1.1 log2.
In turn, “i53 + S65E two-hybrid fusion (designed binder)” had an Experiment 1 Average Enrichment of 1.54 log2, an Experiment 1 Rep 1 Enrichment of 1.29 log2, an Experiment 1 Rep 2 Enrichment of 1.79 log2 and an Experiment 2 Average Enrichment of 0.8 log2. Also, the Experiment 2 Rep 1 Enrichment worked out at 0.74 log2 and the Experiment 2 Rep 2 Enrichment stood at 0.85 log2.
Turning to “i53 + S65H two-hybrid fusion (designed binder)”, the Experiment 1 Average Enrichment stood at 1.1 log2, the Experiment 1 Rep 1 Enrichment turned out to be 0.69 log2, the Experiment 1 Rep 2 Enrichment came to 1.5 log2 and the Experiment 2 Average Enrichment amounted to 1.16 log2. For the same substance, the Experiment 2 Rep 1 Enrichment turned out to be 1.34 log2 and the Experiment 2 Rep 2 Enrichment stood at 0.98 log2.
For “i53 + S65K two-hybrid fusion (designed binder)”, the Experiment 1 Average Enrichment worked out at 1.65 log2, the Experiment 1 Rep 1 Enrichment was determined as 1.61 log2, the Experiment 1 Rep 2 Enrichment came to 1.69 log2 and the Experiment 2 Average Enrichment is 0.63 log2. This substance gave an Experiment 2 Rep 1 Enrichment of 0.74 log2 and an Experiment 2 Rep 2 Enrichment of 0.53 log2.
Regarding “i53 + S65N two-hybrid fusion (designed binder)”, the Experiment 1 Average Enrichment was 0.38 log2, the Experiment 1 Rep 1 Enrichment was 0.04 log2, the Experiment 1 Rep 2 Enrichment amounted to 0.71 log2 and the Experiment 2 Average Enrichment was 0.34 log2. Moreover, the Experiment 2 Rep 1 Enrichment was 0.71 log2 and the Experiment 2 Rep 2 Enrichment is -0.04 log2.
Substance “i53 + S65Q two-hybrid fusion (designed binder)” showed an Experiment 1 Average Enrichment of 0 log2, an Experiment 1 Rep 1 Enrichment of -0.02 log2, an Experiment 1 Rep 2 Enrichment of 0.02 log2 and an Experiment 2 Average Enrichment of 0.12 log2. The same substance showed an Experiment 2 Rep 1 Enrichment of 0.01 log2 and an Experiment 2 Rep 2 Enrichment of 0.24 log2.
